Assay results from patent US8129345B2, “MUC1-IκB kinase complexes and their activities” (Dana-Farber Cancer Institute, Inc., priority 2006, dated 2012).

Assays:
IKKγ = IKKγ (Homo sapiens, UniProt Q9Y6K9); experiment: In vitro GST pull-down binding to IKKγ
Method: FIG. 5B is a pair of photographs of immunoblots showing an interaction between MUC1-CD and IKKγ. GST- and GST-IKKγ bound to glutathione beads were incubated with purified MUC1-CD. The precipitates were immunoblotted (IB) with anti-MUC1-C antibodies. Commassie blue staining of the gel was performed to confirm that equal amounts of GST- and GST-IKKγ were used in the experiment. The molecular weights of proteins (as indicated on the left of the photographs) are expressed as kilodaltons (kDa).
(§1) FIG. 5C is a pair of photographs of immunoblots. GST- and the indicated GST-MUC1-CD fusion proteins or fragments bound to glutathione beads were incubated with purified IKKγ. The precipitates were immunoblotted (IB) with anti-IKKγ antibody. Commassie blue staining of the gel was performed to confirm that equal amounts of GST- and GST-MUC1 proteins were used in the experiment. The molecular weights of proteins (as indicated on the left of the photographs) are expressed as kilodaltons (kDa).
FIG. 5D is a pair of photographs of immunoblots. GST and the indicated GST-IKKγ fusion proteins bound to glutathione beads were incubated with MUC1-CD. The precipitates were immunoblotted (IB) with anti-MUC1-C antibody. Commassie blue staining of the gel was performed to confirm that equal amounts of GST- and GST-IKKγ proteins were used in the experiment. The molecular weights of proteins (as indicated on the left of the photographs) are expressed as kilodaltons (kDa).
as §1, with “FIG. 11B” for “FIG. 5C”, “of an immunoblot and Coomassie blue stained gel. GST” for “of immunoblots. GST-”, “proteins (MUC1-CD and MUC1-CD(mSRM))” for “proteins or fragments”, “with” for “with purified”, “with an” for “with”, “and GST-MUC1-CD” for “and GST-MUC1”
In vitro binding assays. Purified GST-MUC1-CD (glutathione s-transferase fused to the MUC1-CD polypeptide) was cleaved with thrombin to remove the GST moiety. GST, GST-IKKβ (DiDonato et al. (1997) Nature 388:548-554), GST-IKKβ (1-458), GST-IKKβ (458-756), GST-IKKγ (Prajapati et al. (2002) J. Biol. Chem. 277:24331-24339), GST-IKKγ (1-196) or GST-IKKγ (197-419) were then incubated with the MUC1-CD for 1 hour at 25° C. In other experiments, GST, GST-MUC1-CD, GST-MUC1-CD(1-45) or GST-MUC1-CD(46-72) were incubated with purified IKKβ or IKKγ. Adsorbates to glutathione-conjugated beads were analyzed by immunoblotting.

IKKβ = IKKβ (Homo sapiens, UniProt O14920); experiment: In vitro incubation of IKKβ and IKKγ with ATP, phospho-IKKβ-Ser-181 immunoblot; type: biochemical; conditions: MUC1 protein added to the reaction
Method: FIG. 13 is a series of photographs of immunoblots. GST, and GST-IKKγ fusion proteins bound to glutathione beads were incubated with MUC1-CD, MUC1-CD(mSRM), or IKKβ proteins as indicated. The GST-pull down precipitates were immunoblotted (IB) with antibodies specific for (from top to bottom) phosphor-IKKβ-Ser-181 (first panel), IKKγ (second panel), IKKβ (third panel), or MUC1 (fourth panel) as indicated. The molecular weights of proteins (as indicated on the left of the photographs) are expressed as kilodaltons (kDa).

Chain of IKKβ (O14920 whole entry, the tested form may be a part): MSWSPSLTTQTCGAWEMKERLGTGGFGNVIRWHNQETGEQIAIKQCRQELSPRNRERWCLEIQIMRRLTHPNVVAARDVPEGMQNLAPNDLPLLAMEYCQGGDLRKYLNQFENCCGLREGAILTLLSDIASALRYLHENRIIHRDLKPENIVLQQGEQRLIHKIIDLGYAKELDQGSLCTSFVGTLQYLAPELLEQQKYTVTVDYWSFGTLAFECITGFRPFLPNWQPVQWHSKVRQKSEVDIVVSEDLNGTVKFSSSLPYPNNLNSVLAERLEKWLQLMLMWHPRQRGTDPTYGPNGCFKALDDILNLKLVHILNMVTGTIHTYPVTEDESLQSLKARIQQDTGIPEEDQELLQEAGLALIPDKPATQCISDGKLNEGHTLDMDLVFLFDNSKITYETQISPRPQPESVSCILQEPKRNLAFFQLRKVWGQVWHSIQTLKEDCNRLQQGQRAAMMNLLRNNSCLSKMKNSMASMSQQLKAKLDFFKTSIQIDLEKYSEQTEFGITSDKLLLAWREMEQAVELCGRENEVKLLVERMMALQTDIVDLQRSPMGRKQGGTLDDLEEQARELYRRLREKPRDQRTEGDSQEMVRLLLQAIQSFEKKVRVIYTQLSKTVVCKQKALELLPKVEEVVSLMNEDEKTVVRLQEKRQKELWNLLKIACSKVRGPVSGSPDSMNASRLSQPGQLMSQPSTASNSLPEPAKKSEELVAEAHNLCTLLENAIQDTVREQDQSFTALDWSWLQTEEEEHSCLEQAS
Chain of IKKβ (Q9Y6K9 whole entry partner, the tested form may be a part): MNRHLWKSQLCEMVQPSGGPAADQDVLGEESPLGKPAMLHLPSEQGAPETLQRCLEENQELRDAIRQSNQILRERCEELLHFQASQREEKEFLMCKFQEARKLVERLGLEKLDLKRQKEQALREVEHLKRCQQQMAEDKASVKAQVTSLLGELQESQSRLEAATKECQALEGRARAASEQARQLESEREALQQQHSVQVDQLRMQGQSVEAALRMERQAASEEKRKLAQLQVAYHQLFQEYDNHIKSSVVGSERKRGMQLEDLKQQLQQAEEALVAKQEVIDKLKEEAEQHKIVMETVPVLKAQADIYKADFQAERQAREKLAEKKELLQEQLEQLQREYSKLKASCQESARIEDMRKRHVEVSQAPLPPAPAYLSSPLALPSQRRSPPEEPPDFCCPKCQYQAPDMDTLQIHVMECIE

MUC1-CD: 72 amino acid cytoplasmic domain of human MUC1, SEQ ID NO:2
binding to IKKγ (IKKγ; GST pull-down with purified proteins, immunoblot): binds to purified IKKγ
region of IKKγ bound by MUC1-CD (IKKγ; GST-IKKγ (1-196) and GST-IKKγ (197-419) incubated with MUC1-CD): binds to the C-terminal region (197-419) of IKKγ
extent of IKKβ phosphorylation on Ser-181 (IKKβ): increased significantly
